This is an account of results in paper PMC9547493 (2020).

Bridge positions count the residues as written; N and C are the ends. Ends that are not written are not given here. γCp(RSS) = N-terminal (R,S,S)-cyclopropane γ-amino acid; γCp(SRR) = N-terminal (S,R,R)-cyclopropane γ-amino acid

For one assay, the target named is T1, CeiPGM-γCp(SRR) (synthetic construct, thioether N-14).
T1 chain: {γCp(SRR)}-FSISGIEWNGPEIC
The experiment in a line: SPR. (SPR reads the build-up and loss of mass on a sensor chip optically.)

A further assay concerns the target T2, CeiPGM-γCp(RSS) (synthetic construct, thioether N-14).
T2 chain: {γCp(RSS)}-FSISGIEWNGPEIC
The experiment in a line: SPR.

B1: CeiPGM (cofactor-independent phosphoglycerate mutase) (protein)
chain: MFVALGAQIYRQYFGRRGMAMANNSSVANKVCLIVIDGWGVSEDPYGNAILNAQTPVMDKLCSGNWAQIEAHGLHVGLPEGLMGNSEVGHLNIGAGRVIYQDIVRINLAVKNNKFVTNESLVDACDRAKNGNGRLHLAGLVSDGGVHSHIDHMFALVKAIKELGVPELYLHFYGDGRDTSPNSGVGFLEQTLEFLEKTTGYGKLATVVGRYYAMDRDNRWERINVAYEAMIGGVGETSDEAGVVEVVRKRYAADETDEFLKPIILQGEKGRVQNDDTIIFFDYRADRMREISAAMGMDRYKDCNSKLAHPSNLQVYGMTQYKAEFPFKSLFPPASNKNVLAEWLAEQKVSQFHCAETEKYAHVTFFFNGGLEKQFEGEERCLVPSPKVATYDLQPEMSAAGVADKMIEQLEAGTHPFIMCNFAPPDMVGHTGVYEAAVKACEATDIAIGRIYEATQKHGYSLMVTADHGNAEKMKAPDGGKHTAHTCYRVPLTLSHPGFKFVDPADRHPALCDVAPTVLAIMGLPQPAEMTGVSIVQKI
For the molecule B1, the equilibrium dissociation constant (Kd) was found to be 0.8 nM with CeiPGM-γCp(SRR) and 0.3 nM with CeiPGM-γCp(RSS).

In general, Kd refers to the free concentration of one partner at which half of the binding sites on the other are occupied at equilibrium, for simple one-to-one binding. A higher Kd goes with a looser complex.
